Experimental data: patent US20160272680A1 (Bristol-Myers Squibb, published 2016)
Numbered stars: 1 amine (or outer) side, 2 acyl side, 3 side chain; on linkers, the order of the positions; unused ones are H or OH. Bridge positions count the residues as written; N and C are the ends. Square brackets hold non-standard residues; d marks the D form. Ends that are not written are not given here. * marks the point of attachment. Trp(1-CH2CO) = O=C([C@H](Cc1cn(CC(=O)[*:3])c2ccccc12)N[*:1])[*:2]; Hyp = O=C(O)[C@@H]1C[C@@H](O)CN1; NMeNle = CCCC[C@H](NC)C(=O)O; NMeA = CN[C@@H](C)C(=O)O; Dab = NCC[C@H](N)C(=O)O; Dap = NC[C@H](N)C(=O)O; NH(propargyl) = C#CCN*; NHBn = c1ccc(CN*)cc1

molecular target: T1, hPDL1(19-239)-TVMV-His (human, UniProt Q9NZQ7 19-239); test: HTRF competition of PD-1-Ig binding to PD-L1-His; code A=0.01-0.06 µM
T1 construct: Expressed in HEK293T cells; The text says amino acids 18-239, but the construct is named hPD-L1(19-239); The whole entry, including the TVMV site and His tag, is the protein used in the assay; also called PD-L1-TVMV-His; PD-L1-His
T1 sequence (Q9NZQ7 other isoform, or with tags, fused parts or gaps limits assumed): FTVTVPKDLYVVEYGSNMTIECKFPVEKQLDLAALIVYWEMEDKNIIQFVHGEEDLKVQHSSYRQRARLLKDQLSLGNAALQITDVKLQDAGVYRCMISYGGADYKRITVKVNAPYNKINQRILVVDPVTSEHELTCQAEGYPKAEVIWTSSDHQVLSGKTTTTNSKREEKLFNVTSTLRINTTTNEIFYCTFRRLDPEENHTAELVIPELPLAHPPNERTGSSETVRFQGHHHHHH
Procedure: (§1) Homogenous Time-Resolved Fluorescence (HTRF) Assays of Binding of Soluble PD-1 to Soluble PD-L1. Soluble PD-1 and soluble PD-L1 refers to proteins with carboxyl-end truncations that remove the transmembrane-spanning regions and are fused to heterologous sequences, specifically the Fc portion of the human immunoglobuling G sequence (Ig) or the hexahistidine epitope tag (His). All binding studies were performed in an HTRF assay buffer consisting of dPBS supplemented with 0.1% (w/v) bovine serum albumin and 0.05% (v/v) Tween-20. For the PD-1-Ig/PD-L1-His binding assay, inhibitors were pre-incubated with PD-L1-His (10 nM final) for 15 m in 4 μl of assay buffer, followed by addition of PD-1-Ig (20 nM final) in 1 μl of assay buffer and further incubation for 15 m. PD-L1 fusion proteins from either human, cynomologous macaques, mouse, or other species were used. HTRF detection was achieved using europium crypate-labeled anti-Ig monoclonal antibody (1 nM final) and allophycocyanin (APC) labeled anti-His monoclonal antibody (20 nM final). Antibodies were diluted in HTRF detection buffer and 5 μl was dispensed on top of binding reaction. The reaction was allowed to equilibrate for 30 minutes and signal (665 nm/620 nm ratio) was obtained using an EnVision fluorometer. Additional binding assays were established between PD-1-Ig/PD-L2-His (20 and 5 nM, respectively), CD80-His/PD-L1-Ig (100 and 10 nM, respectively) and CD80-His/CTLA4-Ig (10 and 5 nM, respectively). Binding/competition studies between biotinylated Compound No. 71 and human PD-L1-His were performed as follows. Macrocyclic peptide inhibitors were pre-incubated with PD-L1-His (10 nM final) for 60 minutes in 4 μl of assay buffer followed by addition of biotinylated Compound No. 71 (0.5 nM final) in 1 μl of assay buffer. Binding was allowed to equilibrate for 30 minutes followed by addition of europium crypated labeled Streptavidin (2.5 pM final) and APC-labeled anti-His (20 nM final) in 5 μl of HTRF buffer. The reaction was allowed to equilibrate for 30 m and signal (665 nm/620 nm ratio) was obtained using an EnVision fluorometer.

IC50 [nM] | Binder
10 to 60 | {CH2CO}-Y[NMeA]NP[Dap]L[Hyp]WGW[NMeNle][NMeNle]LCG-{methylpiperazine amide} (thioether N-14, Macrocyclic peptide) [Example 13089]
10 to 60 | {CH2CO}-Y[NMeA]NP[Dap]L[Hyp]WGW[NMeNle][NMeNle]LCG-{tert‑butyl 3‑aminopropanoate} (thioether N-14, Macrocyclic peptide) [Example 13109]
10 to 60 | {CH2CO}-Y[NMeA]NP[Dap]L[Hyp]WGW[NMeNle][NMeNle]LCG-{1‑(3-aminopropyl)imidazole amide} (thioether N-14, Macrocyclic peptide) [Example 13099]
10 to 60 | {CH2CO}-Y[NMeA]NP[Dap]L[Hyp]WGW[NMeNle][NMeNle]LCG-{4‑(4-chlorophenyl)piperidine} (thioether N-14, Macrocyclic peptide) [Example 13115]
10 to 60 | {CH2CO}-Y[NMeA]NP[Dap]L[Hyp]WGW[NMeNle][NMeNle]LCG-{pyrrolidin‑1‑yl amide} (thioether N-14, Macrocyclic peptide) [Example 13085]
10 to 60 | {CH2CO}-Y[NMeA]NP[Dap]L[Hyp]WGW[NMeNle][NMeNle]LCG-{2‑methoxyethylamide} (thioether N-14, Macrocyclic peptide) [Example 13082]
10 to 60 | {CH2CO}-Y[NMeA]NP[Dap]L[Hyp]WGW[NMeNle][NMeNle]LCG-{4‑piperidinemethanol} (thioether N-14, Macrocyclic peptide) [Example 13111]
10 to 60 | {CH2CO}-Y[NMeA]NP[Dap]L[Hyp]WGW[NMeNle][NMeNle]LCG-{2‑(phenylthio)ethanamine amide} (thioether N-14, Macrocyclic peptide) [Example 13101]
10 to 60 | {CH2CO}-Y[NMeA]NP[Dap]L[Hyp]WGW[NMeNle][NMeNle]LCG-{3‑(aminomethyl)pyridine amide} (thioether N-14, Macrocyclic peptide) [Example 13094]
10 to 60 | {CH2CO}-Y[NMeA]NP[Dap]L[Hyp]WGW[NMeNle][NMeNle]LCG-{N‑(2-aminoethyl)‑N‑methyl carbamic acid tert‑butyl ester} (thioether N-14, Macrocyclic peptide) [Example 13113]
10 to 60 | {CH2CO}-Y[NMeA]NP[Dap]L[Hyp]WGW[NMeNle][NMeNle]LCG-butylamide (thioether N-14, Macrocyclic peptide) [Example 13100]
10 to 60 | {CH2CO}-Y[NMeA]NP[Dap]L[Hyp]WGW[NMeNle][NMeNle]LCG-{N,N‑dimethyl‑1,3‑propanediamine amide} (thioether N-14, Macrocyclic peptide) [Example 13098]
10 to 60 | {CH2CO}-Y[NMeA]NP[Dap]L[Hyp]WGW[NMeNle][NMeNle]LCG-{4‑aminocyclohexanol} (thioether N-14, Macrocyclic peptide) [Example 13106]
10 to 60 | {CH2CO}-Y[NMeA]NP[Dap]L[Hyp]WGW[NMeNle][NMeNle]LCG-{N‑(3-aminopropyl)diethanolamine} (thioether N-14, Macrocyclic peptide) [Example 13107]
10 to 60 | {CH2CO}-Y[NMeA]NP[Dap]L[Hyp]WGW[NMeNle][NMeNle]LCG-{morpholine amide} (thioether N-14, Macrocyclic peptide) [Example 13087]
10 to 60 | {CH2CO}-Y[NMeA]NP[Dap]L[Hyp]WGW[NMeNle][NMeNle]LCG-{2‑phenoxyethylamine} (thioether N-14, Macrocyclic peptide) [Example 13108]
10 to 60 | {CH2CO}-Y[NMeA]NP[Dap]L[Hyp]WGW[NMeNle][NMeNle]LCG-{N‑methyl‑N‑propylamide} (thioether N-14, Macrocyclic peptide) [Example 13084]
10 to 60 | {CH2CO}-Y[NMeA]NP[Dap]L[Hyp]WGW[NMeNle][NMeNle]LCG-{ethanolamine amide} (thioether N-14, Macrocyclic peptide) [Example 13095]
10 to 60 | {CH2CO}-Y[NMeA]NP[Dap]L[Hyp]WGW[NMeNle][NMeNle]LCG (thioether N-14; not fully specified (C-terminus), Macrocyclic peptide) [Example 13104]
10 to 60 | {CH2CO}-Y[NMeA]NP[Dap]L[Hyp]WGW[NMeNle][NMeNle]LCG-{4‑(dimethylamino)piperidine amide} (thioether N-14, Macrocyclic peptide) [Example 13103]
10 to 60 | {CH2CO}-Y[NMeA]NP[Dap]L[Hyp]WGW[NMeNle][NMeNle]LCG-cyclobutylamide (thioether N-14, Macrocyclic peptide) [Example 13092]
10 to 60 | {CH2CO}-Y[NMeA]NP[Dap]L[Hyp]WGW[NMeNle][NMeNle]LCG-{2‑aminoethylmethylsulfone} (thioether N-14, Macrocyclic peptide) [Example 13116]
10 to 60 | {CH2CO}-Y[NMeA]NP[Dap]L[Hyp]WGW[NMeNle][NMeNle]LCG-{NH(propargyl)} (thioether N-14; SMILES C#CCNC(=O)CNC(=O)[C@@H]1CSCC(=O)N[C@@H](Cc2ccc(O)cc2)C(=O)N(C)[C@@H](C)C(=O)N[C@@H](CC(N)=O)C(=O)N2CCC[C@H]2C(=O)N[C@@H](CN)C(=O)N[C@@H](CC(C)C)C(=O)N2C[C@H](O)C[C@H]2C(=O)N[C@@H](Cc2c[nH]c3ccccc23)C(=O)NCC(=O)N[C@@H](Cc2c[nH]c3ccccc23)C(=O)N(C)[C@@H](CCCC)C(=O)N(C)[C@@H](CCCC)C(=O)N[C@@H](CC(C)C)C(=O)N1, Macrocyclic peptide) [Example 13096]
10 to 60 | {CH2CO}-Y[NMeA]NP[Dap]L[Hyp]WGW[NMeNle][NMeNle]LCG-{N‑Boc‑1,5‑diaminopentane} (thioether N-14, Macrocyclic peptide) [Example 13112]
10 to 60 | {CH2CO}-Y[NMeA]NP[Dap]L[Hyp]WGW[NMeNle][NMeNle]LCG-allylamide (thioether N-14, Macrocyclic peptide) [Example 13097]

molecular target: T1, hPDL1(19-239)-TVMV-His; test: HTRF competition of PD-1-Ig binding to PD-L1-His; code B=0.004-0.0099 µM
Procedure: as §1

IC50 [nM] | Binder
4 to 9.9 | {CH2CO}-Y[NMeA]NP[Dap]L[Hyp]WGW[NMeNle][NMeNle]LCG-cyclopropylamide (thioether N-14, Macrocyclic peptide) [Example 13091]
4 to 9.9 | {CH2CO}-Y[NMeA]NP[Dap]L[Hyp]W[Dab][Trp(1-CH2CO)][NMeNle][NMeNle]LCG-NHBn (thioether N-14; SMILES CCCC[C@H]1C(=O)N(C)[C@@H](CCCC)C(=O)N[C@@H](CC(C)C)C(=O)N[C@H](C(=O)NCC(=O)NCc2ccccc2)CSCC(=O)N[C@@H](Cc2ccc(O)cc2)C(=O)N(C)[C@@H](C)C(=O)N[C@@H](CC(N)=O)C(=O)N2CCC[C@H]2C(=O)N[C@@H](CN)C(=O)N[C@@H](CC(C)C)C(=O)N2C[C@H](O)C[C@H]2C(=O)N[C@@H](Cc2c[nH]c3ccccc23)C(=O)N[C@@H](CCN)C(=O)N[C@@H](Cc2cn(CC(=O)O)c3ccccc23)C(=O)N1C, Macrocyclic peptide) [Example 13080]
4 to 9.9 | {CH2CO}-Y[NMeA]NP[Dap]L[Hyp]WGW[NMeNle][NMeNle]LCG-{3‑aminopropanamide} (thioether N-14, Macrocyclic peptide) [Example 13110]
4 to 9.9 | {CH2CO}-Y[NMeA]NP[Dap]L[Hyp]WGW[NMeNle][NMeNle]LCG-{piperidin‑1‑yl amide} (thioether N-14, Macrocyclic peptide) [Example 13086]
